Experimental data from PMC7886318, “Nanobody generation and structural characterization of Plasmodium falciparum 6-cysteine protein Pf12p” (Biochemical Journal, 2021).

T1: His-tagged Pf41 (Plasmodium falciparum, UniProt Q8I1Y0 21-368)
T1 construct: Pf41, 6-cysteine protein of Plasmodium falciparum, residues K21-S368 (domains D1 and D2); The form loaded on Ni-NTA sensors for BLI; a TEV site stands between the His8 tag and Pf41; also called immobilized Pf41; source: Sf21 insect cells (baculovirus), purified following the protocol of Pf12p with some modifications; not shown: His8, N-terminal, kept
T1 sequence: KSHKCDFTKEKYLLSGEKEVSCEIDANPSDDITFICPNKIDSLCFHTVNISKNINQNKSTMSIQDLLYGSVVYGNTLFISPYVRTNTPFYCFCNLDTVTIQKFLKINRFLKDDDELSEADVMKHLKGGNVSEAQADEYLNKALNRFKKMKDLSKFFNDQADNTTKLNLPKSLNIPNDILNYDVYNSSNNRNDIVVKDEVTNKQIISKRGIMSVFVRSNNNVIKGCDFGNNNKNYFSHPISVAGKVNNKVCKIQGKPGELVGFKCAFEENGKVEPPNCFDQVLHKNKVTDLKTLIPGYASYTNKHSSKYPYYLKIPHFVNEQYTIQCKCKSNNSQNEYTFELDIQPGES

B1: nanobody A10 (VHH)
VHH: QVQLQESGGGLVQPGGSLRLSCAASGIIFSSNTMGWYRQAPGKQRELVASFSGETGANYADSVKGRFIIRRDNAKNAVYLLMNSLKPDDTAAYYCHADRFGTDYWGQGTQVTVSS
notes: From a phage library (pMES4 phagemid) of an alpaca immunized with Pf12p D1D2; source: E. coli WK6, periplasmic extract, purified (HisTrap, SEC)
B2: nanobody D9 (VHH)
VHH: QVQLQESGGGLVQPGGSLRLSCAASGIIFSSHVMGWYRQAPGKQRELVASFSGDTGAKYADSVKGRFIIRRENAKNMVTLYLQMNSLKPEDTAAYYCHVDRFGTEYWGQGTQVTVSS
notes: as for B1
B3: nanobody C4 (VHH)
VHH: QVQLQESGGGLVQPGESLRLSCAASTSIFTVYTMGWYRQAPGKLREWVADVTVGDNRDYVDSVKGRFTISRDNATNTVYLQMNNVKPEDTAVYYCNRVPPGPSGSWGQGTQVTVSS
notes: as for B1
B4: nanobody B9 (VHH)
VHH: QVQLQESGGGLVQAGGSLRLSCTASGRTFSNTVMGWFRQAPGKEREFLAHILWSGGLAYYADSVKGRFTISRDNAKNIVYLQMNSLKPEDTAVYYCAARDFGFGNNYDYWGQGTQVTVSS
notes: From a phage library (pMES4 phagemid) of an alpaca immunized with Pf12p D1D2; also called Nb B9; source: E. coli WK6, periplasmic extract, purified (HisTrap, SEC)
B5: nanobody H7 (VHH)
VHH: QVQLQESGGGLVQAGGSLRLSCAASGRTSSSYAVAWFRQAPGKERQFVATIGYDGVTSYYEDSVEGRFTISRDNAKSMVYLQMNSLKPEDTAVYYCGRDRVPGHTWLARPSQADFGSWGQGTQVTVSS
notes: as for B1
B6: nanobody G6 (VHH)
VHH: QVQLQESGGGLVQPGGSLRLSCEVSGSIFSIDAMAWYRQAPGKQRELVAAILSGGSTNYADSVKGRFAISRDNAKNTGYLQMNSLKPEDTAVYYCNAEGRVSGWGPTEYDYWGQGTQVTVSS
notes: as for B1
B7: nanobody B2 (VHH)
VHH: QVQLQESGGGLVQPGGSLRLSCAASGSAFSRVAMGWYRQAPGKLREYVADITRGGTTDYADSVKGRFTISRDNAKNTIYLQMDSLKPEDTAVYYCNLVPPIRGGYWGQGTQVTVSS
notes: as for B1
B8: nanobody C12 (VHH)
VHH: QVQLQESGGGLVQPGGSLRLSCAASGSAFSRVAMGWYRQAPGKLREYVADITRGGTTDYADSVKGRFTISRDNAKNTVFLQMDSLKPEDTAVYYCNSVPPIRGGYWGQGTQVTVSS
notes: as for B1
B9: Pf12p D1D2 (domain or fragment)
chain: NGVCDFSSEGLSLLPEEKLDFSVSRNVDKLSDENNVRHCVHFSKGFEYLRFICPMRKDNYEGIEIRPVECFEYIHIEGREHKLSEILKGSLYEKSINDNIMTRDVFIPPTIYEDMFFECTCDNSLTFKNNMIGIRGIMKIHLKKNILYGCDFDHDEKLMKNKTAFTNFYDKQKILPLIGNNNNDDDNNDDDNNNDNNNNDNNNNNNNNNNNNNNNNNNNITCNVTIKKSQVYLGIICPDGYTLYPNDCFKNVIYDNNIIIPLKKIIPHDILYHQDKNKRITFASFTLNINENPPGFTCYCIKDQTNINNPLIVNFHFS
B10: nanobody B12 (VHH)
VHH: QVQLQESGGGLVQAGGSLRLSCAASGRTFSSLTMGWFRQAPGKEREFVAGNAWNWSDGTTYYADSVRGRFTISRDNAKKTVYLQMNSLKPEDTAVYYCACAGDRPRVRVPVNSNDYDYWGQGTQVTVSS
notes: as for B1
B11: Pf12 D1D2 (domain or fragment, Plasmodium falciparum, UniProt C6KSX0 28-304, looked up)
chain: NLTCDFNDVYKLEFHPNQQTSVTKLCNLTPNVLEKVTIKCGSDKLNYNLYPPTCFEEVYASRNMMHLKKIKEFVIGSSMFMRRSLTPNKINEVSFRIPPNMMPEKPIYCFCENKKTITINGSNGNPSSKKDIINRGIVEIIIPSLNEKVKGCDFTTSESTIFSKGYSINEISNKSSNNQQDIVCTVKAHANDLIGFKCPSNYSVEPHDCFVSAFNLSGKNENLENKLKLTNIIMDHYNNTFYSRLPSLISDNWKFFCVCSKDNEKKLVFTVEASISS
notes: Pf12, 6-cysteine protein of Plasmodium falciparum, residues N28-S304 (domains D1 and D2); Called untagged for the BLI; also called untagged Pf12 D1D2; recombinant Pf12; source: Sf21 insect cells (baculovirus), purified following the protocol of Pf12p with some modifications; not shown: His8, N-terminal, cleaved
B12: nanobody F7 (VHH)
VHH: QVQLQESGGGLVQPGGSLRLSCAASGSAFSRVAMGWYRQAPGKLREYVADITYGGATDYADSVKGRFTISRDNAKNTIYLQMDSLKPEDTAVYYCNLVPPIGGYWGQGTQVTVSS
notes: as for B1

Experiments:
Pf41 D1D2 = biological target: T2, Pf41 D1D2 (Plasmodium falciparum, UniProt Q8I1Y0); test: ELISA; MaxiSorp wells coated with 65 nM recombinant protein (Pf12p D1D2, Pf12p D2, Pf12 or Pf41) in PBS; 65 nM nanobody, 1 h at RT; bound nanobody detected with mouse anti-His and HRP-conjugated anti-mouse; duplicates; conditions: both partners purified
T2 construct: Pf41, 6-cysteine protein of Plasmodium falciparum, residues K21-S368 (domains D1 and D2); The Pf41 of the ELISA and of the SEC study; also called recombinant Pf41; source: Sf21 insect cells (baculovirus), purified following the protocol of Pf12p with some modifications

Pf12 D1D2 = biological target: T3, Pf12 D1D2 (Plasmodium falciparum, UniProt C6KSX0); test: as above; conditions: both partners purified
T3 construct: Pf12, 6-cysteine protein of Plasmodium falciparum, residues N28-S304 (domains D1 and D2); Called untagged for the BLI; also called untagged Pf12 D1D2; recombinant Pf12; source: Sf21 insect cells (baculovirus), purified following the protocol of Pf12p with some modifications; not shown: His8, N-terminal, cleaved

Pf12p D1D2 [1] = biological target: T4, Pf12p D1D2 (Plasmodium falciparum, UniProt C6KSX1); test: BLI; Octet RED96e; nanobodies (5 ug/ml) loaded on Ni-NTA sensors; untagged Pf12p D1D2 6-200 nM in solution (13-400 nM for A10); PBS pH 7.4, 0.1% BSA, 0.05% Tween-20, 25 C; global 1:1 fit; mean of three experiments; conditions: both partners purified
T4 construct: also called recombinant Pf12p; untagged Pf12p D1D2; source: Sf21 insect cells (baculovirus, secreted), purified (Ni-NTA, TEV cleavage, SEC); not shown: His8, N-terminal, cleaved

Pf12p D2 = biological target: T5, Pf12p D2 (Plasmodium falciparum (3D7 entry …, UniProt C6KSX1)); test: ELISA; MaxiSorp wells coated with 65 nM recombinant protein (Pf12p D1D2, Pf12p D2, Pf12 or Pf41) in PBS; 65 nM nanobody, 1 h at RT; bound nanobody detected with mouse anti-His and HRP-conjugated anti-mouse; duplicates; conditions: both partners purified
T5 construct: Pf12p, 6-cysteine protein of Plasmodium falciparum, amino acids N168-S341: the C-terminal domain D2 only; Same vector and protocol as Pf12p D1D2; source: Sf21 insect cells (baculovirus, secreted), purified (Ni-NTA, TEV cleavage, SEC); not shown: His8, N-terminal, cleaved

Pf12p D1D2 [2] = biological target: T4, Pf12p D1D2; test: as above; conditions: both partners purified
Pf12p D1D2 [3] = biological target: T4, Pf12p D1D2; test: far-Western, overlay or dot blot; purified Pf12p D1D2 run on 4-12% Bis-Tris SDS-PAGE under reduced and non-reduced conditions, blotted on PVDF, probed with 0.5 ug/ml nanobody, detected with HRP-conjugated goat anti-llama IgG; conditions: both partners purified
[4] = biological target: Nine out of 10 nanobodies (alpaca); test: BLI; Octet RED96e; nanobodies (5 ug/ml) loaded on Ni-NTA sensors; untagged Pf12p D1D2 6-200 nM in solution (13-400 nM for A10); PBS pH 7.4, 0.1% BSA, 0.05% Tween-20, 25 C; global 1:1 fit; mean of three experiments
His-tagged Pf41 = biological target: T1, His-tagged Pf41; test: BLI; His-tagged Pf41 (10 or 20 ug/ml) loaded on Ni-NTA sensors; untagged Pf12 D1D2 or untagged Pf12p D1D2 in solution, 16-500 nM or 31-1000 nM; PBS pH 7.4, 0.1% BSA, 0.05% Tween-20, 25 C; 1:1 fit; conditions: both partners purified

Binder | binding result (Pf41 D1D2) | binding result (Pf12 D1D2) | binding result (Pf12p D1D2 [1]) | binding result (Pf12p D2) | other results
B1 | no binding (tested: 65 nM) | no binding (tested: 65 nM) |  |  | Kd (Pf12p D1D2 [1]): ~105 nM
B2 | no binding (tested: 65 nM) | no binding (tested: 65 nM) | binds |  | 
B3 | no binding (tested: 65 nM) | no binding (tested: 65 nM) | binds | binds | 
B4 | no binding (tested: 65 nM) | no binding (tested: 65 nM) | binds | binds | 
B5 | no binding (tested: 65 nM) | no binding (tested: 65 nM) |  | binds | binding result (Pf12p D1D2 [2]): binds
B6 | no binding (tested: 65 nM) | no binding (tested: 65 nM) | binds | binds | 
B7 | no binding (tested: 65 nM) | no binding (tested: 65 nM) |  | binds | binding result (Pf12p D1D2 [3]): binds
B8 | no binding (tested: 65 nM) | no binding (tested: 65 nM) |  | binds | binding result (Pf12p D1D2 [3]): binds
B9 |  |  |  |  | Kd [4]: 3 nM; kon [4]: 100000 M⁻¹ s⁻¹
B10 | no binding (tested: 65 nM) | no binding (tested: 65 nM) | binds |  | 
B11 |  |  |  |  | Kd (His-tagged Pf41): 144 ± 22.6 nM
B12 | no binding (tested: 65 nM) | no binding (tested: 65 nM) |  | binds | binding result (Pf12p D1D2 [3]): binds
